This assay concerns the target T1, recombinant human TIGIT (human, UniProt Q495A1 22-141, limits assumed).
T1 construct: recombinant human TIGIT used in Carterra SPR; also called hTIGIT
T1 sequence (looked up): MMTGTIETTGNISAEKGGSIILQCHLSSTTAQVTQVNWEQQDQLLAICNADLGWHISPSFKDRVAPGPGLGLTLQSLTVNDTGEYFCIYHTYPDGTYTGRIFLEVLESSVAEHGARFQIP
Put plainly: SPR Carterra, average. The procedure: Binding affinities of VHH-Fc proteins to recombinant human TIGIT were measured by SPR using a Carterra instrument (Table 10A). […] Average values reported from measurements from 1-2 samples.

B1: TIGIT-SC200 (Fc fusion)
VHH: EVQLVESGGGLVQPGGSLRLSCAASGNTFSGGFMGWFRQAPGKEREWVASVLRGGYTWYADSVKGRFTISADNSKNTAYLQMNSLKPEDTAVYYCTRDGGFDPWGQGTLVTVSS
notes: VHH-Fc fusion in assay
By Kd is commonly meant a measure of binding affinity in units of concentration. By koff is commonly meant the first-order rate constant of dissociation. By kon is commonly meant a measure of how fast the partners come together. Regarding B1, the dissociation constant (Kd) turned out to be 5.34 nM, the koff was 0.00143 s⁻¹ and the on-rate constant (kon) stood at 290000 M⁻¹ s⁻¹.

B2: TIGIT-SC201 (Fc fusion)
VHH: EVQLVESGGGLVQPGGSLRLSCAASGFTFSPSWMGWFRQAPGKEREWVASVLRGGYTWYADSVKGRFTISADNSKNTAYLQMNSLKPEDTAVYYCTRDGGFDPWGQGTLVTVSS
notes: VHH-Fc fusion in assay
In the case of B2, the Kd came out at 1590 nM, the koff was found to be 0.000901 s⁻¹ and the association rate constant (kon) came to 567 M⁻¹ s⁻¹.

B3: TIGIT-SC203 (Fc fusion)
VHH: EVQLVESGGGLVQPGGSLRLSCAASGFTFSPSWMGWFRQAPGKEREWVASVLRGGYTWYADSVKGRFTISADNSKNTAYLQMNSLKPEDTAVYYCARDRGGSDWGQGTLVTVSS
notes: VHH-Fc fusion in assay
Regarding B3, the equilibrium dissociation constant (Kd) is 914 nM, the koff was 0.14 s⁻¹ and the kon amounted to 153000 M⁻¹ s⁻¹.

B4: TIGIT-SC4 (Fc fusion)
VHH: EVQLVESGGGLVQPGGSLRLSCAASGSIDRINAMGWFRQATGKEREWVASVLRGGYTWYADSVKGRFTISADNSKNTAYLQMNSLKPEDTAVYYCARDSYSTSFWFDPWGQGTLVTVSS
notes: VHH-Fc fusion in assay
Turning to B4, the Kd worked out at 6.24 nM, the koff came out at 0.00222 s⁻¹ and the kon is 356000 M⁻¹ s⁻¹.

B5: TIGIT-SC86 (Fc fusion)
VHH: EVQLVESGGGLVQPGGSLRLSCAASGIIASDSAMGWFRQAPGKEREFVAAIRWSGKETWYADSVKGRFTISADNSKNTAYLQMNSLKPEDTAVYYCARWGGVTFGGVYPLEYWGQGTLVTVSS
notes: VHH-Fc fusion in assay
Turning to B5, the Kd came out at 7.14 nM, the off-rate constant (koff) was 0.00212 s⁻¹ and the kon is 341000 M⁻¹ s⁻¹.

B6: TIGIT-SC88 (Fc fusion)
VHH: EVQLVESGGGLVQPGGSLRLSCAASGFTFSSDWMGWFRQAPGKEREFVAAINRSGHSTSYADSVKGRFTISADNSKNTAYLQMNSLKPEDTAVYYCARWGGVTFGGVYPLEYWGQGTLVTVSS
notes: VHH-Fc fusion in assay
Turning to B6, the Kd is 22 nM, the koff was determined as 0.00204 s⁻¹ and the kon came out at 92500 M⁻¹ s⁻¹.

B7: TIGIT-SC103 (Fc fusion)
VHH: EVQLVESGGGLVQPGGSLRLSCAASGTITSAVFMGWFRQAPGKEREFVAAISWSGGDTNYADSVKGRFTISADNSKNTAYLQMNSLKPEDTAVYYCARWGGITFGGVYPLDYWGQGTLVTVSS
notes: VHH-Fc fusion in assay
Regarding B7, the Kd worked out at 34.3 nM, the koff came out at 0.00498 s⁻¹ and the kon was found to be 145000 M⁻¹ s⁻¹.

B8: TIGIT-SC92 (Fc fusion)
VHH: EVQLVESGGGLVQPGGSLRLSCAASGSTIENYAMGWFRQAPGKEREFVAAIDWSGGSTYYADSVKGRFTISADNSKNTAYLQMNSLKPEDTAVYYCARWRSIWSGYDDYYYMDVWGQGTLVTVSS
notes: VHH-Fc fusion in assay
As for B8, the Kd came to 105 nM, the koff stood at 0.00289 s⁻¹ and the on-rate constant (kon) was found to be 27500 M⁻¹ s⁻¹.

B9: TIGIT-SC91 (Fc fusion)
VHH: EVQLVESGGGLVQPGGSLRLSCAASGFTFSNYAMGWFRQAPGKEREFVAAINWNSRSTYYADSVKGRFTISADNSKNTAYLQMNSLKPEDTAVYYCARWRSIWSGYDDYYYMDVWGQGTLVTVSS
notes: VHH-Fc fusion in assay
On to B9, for which the Kd was 5.42 nM, the koff stood at 0.0071 s⁻¹ and the kon stood at 1.31e+06 M⁻¹ s⁻¹.

B10: TIGIT-SC93 (Fc fusion)
VHH: EVQLVESGGGLVQPGGSLRLSCAASSRTVSSHAMGWFRQAPGKEREFVAAISWSGVTTYYADSVKGRFTISADNSKNTAYLQMNSLKPEDTAVYYCARWRSIWSGYDDYYYMDVWGQGTLVTVSS
notes: VHH-Fc fusion in assay
Turning to B10, the Kd is 49.9 nM, the koff is 0.00407 s⁻¹ and the on-rate constant (kon) worked out at 81500 M⁻¹ s⁻¹.

B11: TIGIT-SC9 (Fc fusion)
VHH: EVQLVESGGGLVQPGGSLRLSCAASGNTFSGGFMGWFRQAPGKEREWVASVLRGGYTWYADSVKGRFTISADNSKNTAYLQMNSLKPEDTAVYYCVNGYSYGRDYWGQGTLVTVSS
notes: VHH-Fc fusion in assay
On to B11, for which the Kd worked out at 9.35 nM, the koff amounted to 0.00159 s⁻¹ and the kon was 268000 M⁻¹ s⁻¹.

B12: TIGIT-SC40 (Fc fusion)
VHH: EVQLVESGGGLVQPGGSLRLSCAASGFSFDRWAMGWFRQAPGKERELVARISWNGGSTYYADSVKGRFTISADNSKNTAYLQMNSLKPEDTAVYYCARDDGWLQFMHWGQGTLVTVSS
notes: VHH-Fc fusion in assay
On to B12, for which the dissociation constant Kd was found to be 11.4 nM, the koff amounted to 0.0015 s⁻¹ and the on-rate (kon) was determined as 137000 M⁻¹ s⁻¹.

B13: TIGIT-SC122 (Fc fusion)
VHH: EVQLVESGGGLVQPGGSLRLSCAASGFSFDDYVMGWFRQAPGKEREFVAAISMSGGYTHYADSVKGRFTISADNSKNTAYLQMNSLKPEDTAVYYCAREGYYGSGSYLVYWGQGTLVTVSS
notes: VHH-Fc fusion in assay
As for B13, the Kd was 10.7 nM, the koff was 0.00217 s⁻¹ and the kon turned out to be 524000 M⁻¹ s⁻¹.

B14: TIGIT-SC123 (Fc fusion)
VHH: EVQLVESGGGLVQPGGSLRLSCAASGSIFSGNTMGWFRQAPGKEREFVAAISWSGAYTEYADSVKGRFTISADNSKNTAYLQMNSLKPEDTAVYYCAREGYYGSGSYLVYWGQGTLVTVSS
notes: VHH-Fc fusion in assay
For the molecule B14, the equilibrium dissociation constant (Kd) was determined as 47.3 nM, the koff turned out to be 0.00232 s⁻¹ and the on-rate (kon) worked out at 49100 M⁻¹ s⁻¹.

B15: TIGIT-SC70 (Fc fusion)
VHH: EVQLVESGGGLVQPGGSLRLSCAASGRTFSSFAMGWFRQAPGKEREFVAAISGSGEDTYYADSVKGRFTISADNSKNTAYLQMNSLKPEDTAVYYCARWRLDRRQGFYYAMDVWGQGTLVTVSS
notes: VHH-Fc fusion in assay
Take B15: the Kd was found to be 11.2 nM, the koff was found to be 0.00359 s⁻¹ and the kon came to 321000 M⁻¹ s⁻¹.

B16: TIGIT-SC214 (Fc fusion)
VHH: EVQLVESGGGLVQPGGSLRLSCAASGFTFGDSWMGWFRQAPGKEHEFVAAIWRSGTLKAYADSVKGRFTISADNSKNTAYLQMNSLKPEDTAVYYCTSYDAVAGTRDFWGQGTLVTVSS
notes: VHH-Fc fusion in assay
With B16, the Kd came out at 6.13 nM, the koff turned out to be 0.0248 s⁻¹ and the kon is 4.05e+06 M⁻¹ s⁻¹.

B17: TIGIT-SC71 (Fc fusion)
VHH: EVQLVESGGGLVQPGGSLRLSCAASGSIRSLNAMGWFRQAPGKEREFVAAINWDSARTYYADSVKGRFTISADNSKNTAYLQMNSLKPEDTAVYYCARWSAKRHSDTMTYYMDVWGQGTLVTVSS
notes: VHH-Fc fusion in assay
Take B17: the Kd was 10.5 nM, the koff came out at 0.00436 s⁻¹ and the on-rate constant (kon) came to 413000 M⁻¹ s⁻¹.

B18: TIGIT-SC106 (Fc fusion)
VHH: EVQLVESGGGLVQPGGSLRLSCAASGFPFDDYAMGWFRQAPGKERELVAVIRWTGMSTHYADSVKGRFTISADNSKNTAYLQMNSLKPEDTAVYYCAKGIAVAGAFDYWGQGTLVTVSS
notes: VHH-Fc fusion in assay
Turning to B18, the Kd stood at 7.99 nM, the koff is 0.000753 s⁻¹ and the kon was determined as 95500 M⁻¹ s⁻¹.

B19: TIGIT-SC55 (Fc fusion)
VHH: EVQLVESGGGLVQPGGSLRLSCAASGFPFDDYAMGWFRQAPGKERELVAVIRWTGMNTHYADSVKGRFTISADNSKNTAYLQMNSLKPEDTAVYYCAKGIAVAGAFDYWGQGTLVTVSS
notes: VHH-Fc fusion in assay
Take B19: the equilibrium dissociation constant (Kd) amounted to 28.5 nM, the koff amounted to 0.00231 s⁻¹ and the kon was 90600 M⁻¹ s⁻¹.

B20: TIGIT-SC33 (Fc fusion)
VHH: EVQLVESGGGLVQPGGSLRLSCAASGFLFDSYAMGWFRQAPGKEREFVAAVSQSGLLTFYADSVKGRFTISADNSKNTAYLQMNSLKPEDTAVYYCASRTSSWWWFDPWGQGTLVTVSS
notes: VHH-Fc fusion in assay
On to B20, for which the Kd worked out at 6.72 nM, the koff was found to be 0.00107 s⁻¹ and the on-rate constant (kon) stood at 182000 M⁻¹ s⁻¹.

B21: TIGIT-SC74 (Fc fusion)
VHH: EVQLVESGGGLVQPGGSLRLSCAASGRTFANNAMGWFRQAPGKEREFVAAINWSGGNTYYADSVKGRFTISADNSKNTAYLQMNSLKPEDTAVYYCAKWSYYGSGLYGMDVWGQGTLVTVSS
notes: VHH-Fc fusion in assay
For the molecule B21, the Kd was determined as 18 nM, the koff came out at 0.00329 s⁻¹ and the kon turned out to be 183000 M⁻¹ s⁻¹.

B22: TIGIT-SC75 (Fc fusion)
VHH: EVQLVESGGGLVQPGGSLRLSCAASGFIGNYHAMGWFRQAPGKEREFVAAIRWSDGSSYYADSVKGRFTISADNSKNTAYLQMNSLKPEDTAVYYCAKWSYYGSGLYGMDVWGQGTLVTVSS
notes: VHH-Fc fusion in assay
On to B22, for which the dissociation constant (Kd) is 7.44 nM, the koff turned out to be 0.000376 s⁻¹ and the association rate constant (kon) is 50500 M⁻¹ s⁻¹.

B23: TIGIT-SC83 (Fc fusion)
VHH: EVQLVESGGGLVQPGGSLRLSCAASGRTFSDDAMGWFRQAPGKEREFVAAISRSGGNTYYADSVKGRFTISADNSKNTAYLQMNSLKPEDTAVYYCAKWFYYGSGLYTLDVWGQGTLVTVSS
notes: VHH-Fc fusion in assay
Consider B23, for which the Kd worked out at 29.1 nM, the off-rate constant (koff) came out at 0.00378 s⁻¹ and the kon amounted to 132000 M⁻¹ s⁻¹.

B24: TIGIT-SC82 (Fc fusion)
VHH: EVQLVESGGGLVQPGGSLRLSCAASGSMSSNYAMGWFRQAPGKEREFVAAIDWSGGNTYYADSVKGRFTISADNSKNTAYLQMNSLKPEDTAVYYCAKWFYYGSGLYTLDVWGQGTLVTVSS
notes: VHH-Fc fusion in assay
For B24, the dissociation constant (Kd) is 57 nM, the koff amounted to 0.00324 s⁻¹ and the on-rate constant (kon) was found to be 56700 M⁻¹ s⁻¹.

B25: TIGIT-SC76 (Fc fusion)
VHH: EVQLVESGGGLVQPGGSLRLSCAASGFTFSDYAMGWFRQAPGKERELVARIGHDGSTDYADSVKGRFTISADNSKNTAYLQMNSLKPEDTAVYYCLGGLDPWGQGTLVTVSS
notes: VHH-Fc fusion in assay
As for B25, the Kd was 7.64 nM, the koff came to 0.00717 s⁻¹ and the kon was determined as 938000 M⁻¹ s⁻¹.

(Values after patent publication US20260184782A1 (TWIST BIOSCIENCE, published 2026).)
